# How the values were obtained:
# [1] = target: the molecule itself; test: SEC-MALS; SEC-MALLS, Superdex 200 increase 10/300 GL, 200 mM NaCl, 25 mM HEPES 7.5, 0.4 mL/min; CADM1(ECD)-His6 at 160, 80, 40 and 20 µM; monomer to dimer
# [2] = target: the molecule itself; test: SEC; F-SEC on tryptophan fluorescence, Superose 6 increase 10/300, purified protein injected at 0.15 to 80 µM; 150 mM NaCl, 25 mM HEPES pH 7.5, 0.025% DDM
# [3] = target: the molecule itself; test: SEC; F-SEC on the eGFP signal, Superdex 200 increase 10/300 GL, strep-tactin-purified samples of individually expressed or co-expressed proteins; 150 mM NaCl, 25 mM HEPES pH 7.5, 0.025% DDM
protein,measurement,setting,value
"CADM1(ECD)-His6 (domain or fragment, human, UniProt Q9BY67 45-374, looked up, ectodomain of CADM1, human, UniProtKB Q9BY67.2, without the natural signal peptide; also called His-tagged CADM1 ectodomain; soluble CADM1(ECD)-His6; source: HEK293-E+ cells, secreted into the supernatant, purified (Ni Sepharose excel, SEC); not shown: His6, C-terminal, kept) QNLFTKDVTVIEGEVATISCQVNKSDDSVIQLLNPNRQTIYFRDFRPLKDSRFQLLNFSSSELKVSLTNVSISDEGRYFCQLYTDPPQESYTTITVLVPPRNLMIDIQKDTAVEGEEIEVNCTAMASKPATTIRWFKGNTELKGKSEVEEWSDMYTVTSQLMLKVHKEDDGVPVICQVEHPAVTGNLQTQRYLEVQYKPQVHIQMTYPLQGLTREGDALELTCEAIGKPQPVMVTWVRVDDEMPQHAVLSGPNLFINNLNKTDNGTYRCEASNIVGKAHSDYMLYVYDPPTTIPPPTTTTTTTTTTTTTILTIITDSRAGEEGSIRAVDH",stoichiometry N,[1],2
"CADM1-StrepII3 (natural protein, human, UniProt Q9BY67 45-442, looked up, CADM1 excluding the signal peptide, human, UniProtKB Q9BY67.2; called full-length in the results; expressed behind the vector's N-terminal signal peptide; also called full-length CADM1-StrepII3; source: HEK293-E+ cells, transiently transfected, solubilized in DDM, purified (strep-tactin, SEC); not shown: StrepII3, C-terminal, kept) QNLFTKDVTVIEGEVATISCQVNKSDDSVIQLLNPNRQTIYFRDFRPLKDSRFQLLNFSSSELKVSLTNVSISDEGRYFCQLYTDPPQESYTTITVLVPPRNLMIDIQKDTAVEGEEIEVNCTAMASKPATTIRWFKGNTELKGKSEVEEWSDMYTVTSQLMLKVHKEDDGVPVICQVEHPAVTGNLQTQRYLEVQYKPQVHIQMTYPLQGLTREGDALELTCEAIGKPQPVMVTWVRVDDEMPQHAVLSGPNLFINNLNKTDNGTYRCEASNIVGKAHSDYMLYVYDPPTTIPPPTTTTTTTTTTTTTILTIITDSRAGEEGSIRAVDHAVIGGVVAVVVFAMLCLLIILGRYFARHKGTYFTHEAKGADDAADADTAIINAEGGQNNSEEKKEYFI",binding result,[2],binds
"CADM1-eGFP-StrepII3 (natural protein, human, UniProt Q9BY67 45-442, looked up, CADM1 excluding the signal peptide, human, UniProtKB Q9BY67.2; expressed behind the vector's N-terminal signal peptide; source: HEK293-E+ cells, transiently transfected, solubilized in DDM, purified (strep-tactin); not shown: eGFP, C-terminal, kept; StrepII3, C-terminal, kept) QNLFTKDVTVIEGEVATISCQVNKSDDSVIQLLNPNRQTIYFRDFRPLKDSRFQLLNFSSSELKVSLTNVSISDEGRYFCQLYTDPPQESYTTITVLVPPRNLMIDIQKDTAVEGEEIEVNCTAMASKPATTIRWFKGNTELKGKSEVEEWSDMYTVTSQLMLKVHKEDDGVPVICQVEHPAVTGNLQTQRYLEVQYKPQVHIQMTYPLQGLTREGDALELTCEAIGKPQPVMVTWVRVDDEMPQHAVLSGPNLFINNLNKTDNGTYRCEASNIVGKAHSDYMLYVYDPPTTIPPPTTTTTTTTTTTTTILTIITDSRAGEEGSIRAVDHAVIGGVVAVVVFAMLCLLIILGRYFARHKGTYFTHEAKGADDAADADTAIINAEGGQNNSEEKKEYFI",binding result,[3],binds

# From doi:10.64898/2025.12.12.693935, “Tetraspanin CD82 reduces the formation of CADM1 oligomers” (bioRxiv, 2025)
